Laboratory results as given in paper PMC9424959, “Single mutations toggle the substrate selectivity of multifunctional Camptotheca secologanic acid synthases” (The Journal of Biological Chemistry, 2022).
Positions count from the first letter of the chain named. Numbers in names are those of the source.

Columns and labels:
[1] = target: T1, CYP72A565 (Camptotheca acuminata, UniProt A0A4Y5UJ61); assay: LC-MS of secologanic acid formed, reconstituted with CPR1; format: biochemical; details: 250 uM substrate, 500 uM NADPH, Camptotheca CPR1, DLPC, 100 mM NaPO4 pH 7.5, 30 °C, 120 min
T1 construct: full-length ORF, C-terminal His6, in pCWori, expressed in E. coli, purified; kinetics with Camptotheca CPR1 and DLPC

[2] = target: T2, CYP72A564 (Camptotheca acuminata, UniProt A0A7G8Z808); assay: as above; format: biochemical; details: 250 uM substrate, 500 uM NADPH, Camptotheca CPR1, DLPC, 100 mM NaPO4 pH 7.5, 30 °C, 120 min
T2 construct: full-length ORF, C-terminal His6, in pCWori, expressed in E. coli, purified; kinetics with Camptotheca CPR1 and DLPC

[3] = target: T3, CYP72A565 (Camptotheca acuminata, UniProt A0A4Y5UJ61, K270T); assay: Type I difference spectral titration; format: binding; details: read-out: Ks/mM
T3 construct: full-length ORF, C-terminal His6, in pCWori, expressed in E. coli, purified; kinetics with Camptotheca CPR1 and DLPC
Description: (§1) Type I difference spectral titration on CYP72A565

[4] = target: T4, CYP72A565 (Camptotheca acuminata, UniProt A0A4Y5UJ61, H131F/H132D); assay: Type I difference spectral titration; format: binding; details: read-out: Ks/mM
T4 construct: full-length ORF, C-terminal His6, in pCWori, expressed in E. coli, purified; kinetics with Camptotheca CPR1 and DLPC
Description: as §1

[5] = target: T5, CYP72A565 (Camptotheca acuminata, UniProt A0A4Y5UJ61, H131F); assay: Type I difference spectral titration; format: binding; details: read-out: Ks/mM
T5 construct: full-length ORF, C-terminal His6, in pCWori, expressed in E. coli, purified; kinetics with Camptotheca CPR1 and DLPC
Description: as §1

[6] = target: SLS, SLAS common ancestor (node 34) (synthetic construct); assay: Type I difference spectral titration; format: binding; details: read-out: Ks/mM
Description: Type I difference spectral titration on SLS, SLAS common ancestor (node 34)

[7] = target: T1, CYP72A565; assay: LC-MS of secologanin formed, reconstituted with CPR1; format: biochemical; details: 250 uM substrate, 500 uM NADPH, Camptotheca CPR1, DLPC, 100 mM NaPO4 pH 7.5, 30 °C, 120 min
[8] = target: T6, CYP72A564 (Camptotheca acuminata, UniProt A0A7G8Z808, H132D); assay: Type I difference spectral titration; format: binding; details: read-out: Ks/mM
T6 construct: full-length ORF, C-terminal His6, in pCWori, expressed in E. coli, purified; kinetics with Camptotheca CPR1 and DLPC
Description: (§2) Type I difference spectral titration on CYP72A564

[9] = target: T7, CYP72A564 (Camptotheca acuminata, UniProt A0A7G8Z808, H131F); assay: Type I difference spectral titration; format: binding; details: read-out: Ks/mM
T7 construct: full-length ORF, C-terminal His6, in pCWori, expressed in E. coli, purified; kinetics with Camptotheca CPR1 and DLPC
Description: as §2

[10] = target: T2, CYP72A564; assay: LC-MS of secologanin formed, reconstituted with CPR1; format: biochemical; details: 250 uM substrate, 500 uM NADPH, Camptotheca CPR1, DLPC, 100 mM NaPO4 pH 7.5, 30 °C, 120 min
[11] = substrate: COC(=O)C1=CO[C@@H](O[C@@H]2O[C@H](CO)[C@@H](O)[C@H](O)[C@H]2O)[C@@H]2[C@@H](C)[C@@H](O)C[C@H]12; assay: purified protein; format: biochemical, Camptotheca acuminata; details: ~0.8 mM NADPH, Camptotheca CPR1, 60 uM DLPC, 100 mM NaPO4 pH 7.5, 30 °C
[12] = substrate: C[C@@H]1[C@H]2[C@H](O[C@@H]3O[C@H](CO)[C@@H](O)[C@H](O)[C@H]3O)OC=C(C(=O)O)[C@H]2C[C@@H]1O; assay: purified protein; format: biochemical, Camptotheca acuminata; details: ~0.8 mM NADPH, Camptotheca CPR1, 60 uM DLPC, 100 mM NaPO4 pH 7.5, 30 °C

T2 sequence (A0A7G8Z808 entry or part of it): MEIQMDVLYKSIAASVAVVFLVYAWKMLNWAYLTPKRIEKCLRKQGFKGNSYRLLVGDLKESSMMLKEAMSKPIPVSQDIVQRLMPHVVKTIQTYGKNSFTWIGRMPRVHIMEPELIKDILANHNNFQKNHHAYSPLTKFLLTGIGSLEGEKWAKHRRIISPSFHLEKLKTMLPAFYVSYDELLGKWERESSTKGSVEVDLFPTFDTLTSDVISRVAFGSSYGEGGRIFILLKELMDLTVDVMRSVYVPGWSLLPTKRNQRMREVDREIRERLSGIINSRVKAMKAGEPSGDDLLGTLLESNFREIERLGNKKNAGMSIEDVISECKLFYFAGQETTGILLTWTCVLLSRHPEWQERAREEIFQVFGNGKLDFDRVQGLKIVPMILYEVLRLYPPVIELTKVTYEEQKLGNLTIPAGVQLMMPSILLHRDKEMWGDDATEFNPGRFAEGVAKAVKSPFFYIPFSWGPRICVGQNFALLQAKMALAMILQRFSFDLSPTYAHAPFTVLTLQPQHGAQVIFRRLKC
T1 sequence (A0A4Y5UJ61 entry or part of it): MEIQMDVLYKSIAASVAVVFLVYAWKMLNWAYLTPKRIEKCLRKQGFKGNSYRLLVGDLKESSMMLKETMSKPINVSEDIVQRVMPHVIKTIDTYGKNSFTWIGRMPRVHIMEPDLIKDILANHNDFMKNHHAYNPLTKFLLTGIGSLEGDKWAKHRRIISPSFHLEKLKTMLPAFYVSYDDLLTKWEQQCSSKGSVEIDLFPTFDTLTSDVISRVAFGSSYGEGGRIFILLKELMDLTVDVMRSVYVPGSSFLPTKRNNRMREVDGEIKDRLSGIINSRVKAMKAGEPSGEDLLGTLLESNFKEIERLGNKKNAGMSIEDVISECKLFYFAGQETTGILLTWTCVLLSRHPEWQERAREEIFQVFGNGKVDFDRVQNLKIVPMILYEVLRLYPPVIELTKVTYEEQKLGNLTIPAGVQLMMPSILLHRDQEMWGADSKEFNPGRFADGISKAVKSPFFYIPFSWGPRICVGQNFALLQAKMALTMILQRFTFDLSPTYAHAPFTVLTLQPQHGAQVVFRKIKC
T6 sequence (A0A7G8Z808 entry or part of it H132D): as the sequence (A0A7G8Z808 entry or part of it) above, with H132D counted along it
T4 sequence (A0A4Y5UJ61 entry or part of it H131F/H132D): as the sequence (A0A4Y5UJ61 entry or part of it) above, with H131F, H132D counted along it
T3 sequence (A0A4Y5UJ61 entry or part of it K270T): as the sequence (A0A4Y5UJ61 entry or part of it) above, with K270T counted along it

## C[C@@H]1[C@H]2[C@H](O[C@@H]3O[C@H](CO)[C@@H](O)[C@H](O)[C@H]3O)OC=C(C(=O)O)[C@H]2C[C@@H]1O [loganic acid]
[1]
  LC-MS of secologanic acid formed, reconstituted with CPR1: CYP72A564 consistently showed higher SLS and SLAS activity than CYP72A565
[2]
  LC-MS of secologanic acid formed, reconstituted with CPR1: CYP72A564 consistently showed higher SLS and SLAS activity than CYP72A565

## COC(=O)C1=CO[C@@H](O[C@@H]2O[C@H](CO)[C@@H](O)[C@H](O)[C@H]2O)[C@@H]2[C@@H](C)[C@@H](O)C[C@H]12 [loganin]
[3]
  Kd: 1.2 ± 0.084 mM
[4]
  Kd: 0.345 ± 0.041 mM
[5]
  Kd: 0.283 ± 0.013 mM
[6]
  Kd: 2.3 ± 1 mM
[7]
  LC-MS of secologanin formed, reconstituted with CPR1: CYP72A564 consistently showed higher SLS and SLAS activity than CYP72A565
[8]
  Kd: 1.19 ± 0.048 mM
[9]
  Kd: 0.0547 ± 0.003 mM
[10]
  LC-MS of secologanin formed, reconstituted with CPR1: CYP72A564 consistently showed higher SLS and SLAS activity than CYP72A565

B1: CYP72A565 (Camptotheca acuminata; H131F) (protein)
chain: MEIQMDVLYKSIAASVAVVFLVYAWKMLNWAYLTPKRIEKCLRKQGFKGNSYRLLVGDLKESSMMLKETMSKPINVSEDIVQRVMPHVIKTIDTYGKNSFTWIGRMPRVHIMEPDLIKDILANHNDFMKNFHAYNPLTKFLLTGIGSLEGDKWAKHRRIISPSFHLEKLKTMLPAFYVSYDDLLTKWEQQCSSKGSVEIDLFPTFDTLTSDVISRVAFGSSYGEGGRIFILLKELMDLTVDVMRSVYVPGSSFLPTKRNNRMREVDGEIKDRLSGIINSRVKAMKAGEPSGEDLLGTLLESNFKEIERLGNKKNAGMSIEDVISECKLFYFAGQETTGILLTWTCVLLSRHPEWQERAREEIFQVFGNGKVDFDRVQNLKIVPMILYEVLRLYPPVIELTKVTYEEQKLGNLTIPAGVQLMMPSILLHRDQEMWGADSKEFNPGRFADGISKAVKSPFFYIPFSWGPRICVGQNFALLQAKMALTMILQRFTFDLSPTYAHAPFTVLTLQPQHGAQVVFRKIKC
notes: full-length ORF, C-terminal His6, in pCWori, expressed in E. coli, purified; kinetics with Camptotheca CPR1 and DLPC
[11]
  Km: 290 ± 80 µM
  kcat: 0.128 ± 0.01 s⁻¹
  kcat/Km: 445 ± 130 M⁻¹ s⁻¹

B2: CYP72A565 (Camptotheca acuminata; H131F/H132D) (protein)
chain: B1 chain with H132D
notes: as for B1
[11]
  Km: 1710 ± 100 µM
  kcat: 0.53 ± 0.0233 s⁻¹
  kcat/Km: 280 ± 18.3 M⁻¹ s⁻¹

B3: CYP72A564 (Camptotheca acuminata; H131F) (protein)
chain: MEIQMDVLYKSIAASVAVVFLVYAWKMLNWAYLTPKRIEKCLRKQGFKGNSYRLLVGDLKESSMMLKEAMSKPIPVSQDIVQRLMPHVVKTIQTYGKNSFTWIGRMPRVHIMEPELIKDILANHNNFQKNFHAYSPLTKFLLTGIGSLEGEKWAKHRRIISPSFHLEKLKTMLPAFYVSYDELLGKWERESSTKGSVEVDLFPTFDTLTSDVISRVAFGSSYGEGGRIFILLKELMDLTVDVMRSVYVPGWSLLPTKRNQRMREVDREIRERLSGIINSRVKAMKAGEPSGDDLLGTLLESNFREIERLGNKKNAGMSIEDVISECKLFYFAGQETTGILLTWTCVLLSRHPEWQERAREEIFQVFGNGKLDFDRVQGLKIVPMILYEVLRLYPPVIELTKVTYEEQKLGNLTIPAGVQLMMPSILLHRDKEMWGDDATEFNPGRFAEGVAKAVKSPFFYIPFSWGPRICVGQNFALLQAKMALAMILQRFSFDLSPTYAHAPFTVLTLQPQHGAQVIFRRLKC
notes: as for B1
[11]
  Km: 50 ± 10 µM
  kcat: 0.132 ± 0.00333 s⁻¹
  kcat/Km: 2480 ± 300 M⁻¹ s⁻¹

B4: CYP72A564 (Camptotheca acuminata; H132D) (protein)
chain: B3 chain with F131H, H132D
notes: as for B1
[11]
  Km: 1440 ± 60 µM
  kcat: 0.228 ± 0.005 s⁻¹
  kcat/Km: 158 ± 8.33 M⁻¹ s⁻¹

B5: CYP72A564 (Camptotheca acuminata; R270T) (protein)
chain: B3 chain with F131H, R270T
notes: as for B1
[12]
  Km: 3540 ± 510 µM
  kcat: 0.333 ± 0.0267 s⁻¹
  kcat/Km: 95 ± 15 M⁻¹ s⁻¹
